Reference: the nanobody polyreactivity screen of Harvey et al. (2022)

Assay: yeast display, Sf9 membrane polyspecificity reagent, FACS + sequencing; frameworks hold sequencing errors
How it was run: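 Genes from sorted yeast were amplified by colony PCR, read by MiSeq 2 × 250 sequencing and filtered on CDR length. These cells carried a synthetic nanobody library in Saccharomyces cerevisiae BJ5465 and were sorted by FACS into low and high (top ~1%) gates on anti-HA and streptavidin fluorescence. Polyreactivity is labelled according to the gate of origin.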

Sequence | polyreactivity (PSR sort gate)
QGQLVESGGGLVQAGGSLRLSCAASGYIIRAYAMGWYRQAHGKERELVAAISSRGGSTYYADSVKGRFTISRDNAKNTVYLQMNSLKPEDTAVYYCAAAYRQPYIGYGYWGQGTQVTVSS | high polyreactivity
QGQLVESGGGLVQAGGSLRLTCAASGSIFYVYDIGWYRPAPGKERELVANIRDGGITYADSVKGRFTISRDNAKYTVYLQMNSLKPEDTAVYYCARDDTSPGYGDQSSNAAYYYWGQGTQVTVSS | low polyreactivity
QGQLVESGGGLVQGGGSLRFSCAASGITFQRYALGGYRQAPGKDRALVAAIRRSGTSTYYADSVKGRFPITRHNAKNPVHLQMNSLKPEDTAVKYCAAGSYPTEGSKYGYWGQGTQVTGSS | high polyreactivity
QGQLVESGGRLVQAGGSLRLSCAASGFIFDAYAMGWYRQAPWKERELVAAIDYSGGNTYYADSVTGRFTISRDNAKNTVYLQMNSLTPEDTAVYYCNADYAGSFWSREYDYWGQGTQVTVSS | low polyreactivity
QGQLVESGVGLVQAGGSLRLSCAASGLTFSWYAMGWYRQAPGKERELVAVITTSGGSTYYSDSVKGRFTISRDNAKNTVYLQMNSLKPEDTAVYYCAVGVPSWEFDYWGQGTHVTVSS | low polyreactivity
QGQLVESWGGLVQAGGSLRLICAASGFNLGRYAKGWYRQAPGKERELVAAISIGGRTNYADSVKERFTISRDNSKTSVYLHLKSLKPEVTAVYYSAADVRGSAYTTGDYWGQGTQVTVTS | low polyreactivity
QGQLVETGGGLVQAGGSLRLSCAASGRIFDDNAMGWYRQAPGKERELVASITVSTGSTYYADSVKGRFTISRDNAKNTVYLKMNSLKPEDTAVYYCAKDNSLPDYDYWGQGSQVTVSS | low polyreactivity
QGQRVESGGGLVQAGGSLRLSCAASGFIFSYYTMGWYRQAPGKERELVAAISSTGRTNYADSVKGRFTISRDNAKHTVYLQMNSLKPDDTAFYYCNAAKLSYGPWRGYYKLDVWGQGTQVTVSS | high polyreactivity
QGQRVESGGGLVQAGGSLRLSCAASGRIFTFYAMGWYRPAPGKERELVAAITWGDGSTYYADSVKGRFTISRDNAKNTVYLQMNSLKPEDTAVYYCNKTYIDTTVYVVIMDYWGQGTQVTVSS | low polyreactivity
QGQRVESGGGLVQAGGSLRLSCAASGRIFTQYAMGWYRQAPGKARELVAASNASDGSTYADSVKGRFTISRDNAKNTVYIQINSLKPEDTAVYYCNVTGGPYDFTRWSEFDHWGQGTHVTVSS | low polyreactivity
QGQRVESGGGLVQAGGSLRLSCAASGSTFPWYAMGWYRQARGSERELVAGISEGGASTYYADSVKGRFTISRDNAKNTVYLQMNSLNPEDTAVYYCAADQVGAVYWVGEYGYWGQGTHVTVSS | low polyreactivity
QIQLVESCGGLVQPGGSLRLSCAASGFTFYRYSRGWYRQAPGKERELVAPISTSGVSTYYADSVKGRFTISRDNAKNTVYLQMNSLKPEDTAVYYWAASAGPRASYYYWGQGTQVTVSS | high polyreactivity
QIQLVESGGGIVQAGGSLRLSCAASGFIFNTYDMGWYRQAPGKEMELVAVITSGGTTNYADSVKGRFTISRDNAKNTVYLQINCLKPEDTAVYSCNRDSVLDPGNPKPYVFDYWGQGTQVTVSS | low polyreactivity
QIQLVESGGGLVQAGGSLRLSCAASGFTFYYYVMGWYRQAPGKERELVAAISSRGGSTYYADSVKGRFTISRDNAKNTVYLQMNSLKPEDTAVYYCAATYWPYRPGYYYWGQGTQVTVSS | high polyreactivity
QLHLVESAGGLVQAGGSLRLSCVYSGLTQPYAMGWYRHAPGKEREWVAGITCRGASTYYADSVKGRFTISRDNAKNTVYLQLNSLKPEDTAVYYCAARSTIQRRGYYGYRVGLSEYGYWGQGTQVTVSS | low polyreactivity
QLKHVESGGGLVQAGGSLRLSCAASVGTFGLNAMGRYRQAPGKERELVADIDGRGGSTYYADSVKGRFTISRDNAKNTVNLQMNTLKPEDTAVYYCAARAPFLSVPSELDYCGQGTQVTVSS | low polyreactivity

Sequence | polyreactivity (PSR sort gate)
QLKLEESGGRLVQAGGSLRLSCASSGRTFTYYVMGCYRQAPGKERELVAAISDSGGSTYYADSVKGRFTISRDNAKNTVYLQMNSLKPEDTAVYYCATDSYWYRLREYNYWGQGTQVTVSS | high polyreactivity
QLQHVESGGGLVQAGGSLRLSCAGTGRIMWRNAMGWYRQAPGKEMELVAAITSGSRTSYADSVKGRFTISRDNSKNTVYLQMNSLKPEDTAVYYCARRSYGIYYRSADESWGQGTQVTVSS | high polyreactivity
QLQLEESGGGLVQAGGSLRLSCAASANTIYQYAMGRYRQAPGKERELVAAIDWSGGSTYADSVKGRFTISRDNAKNTVYLQMNSLKPEDTAFYYCNASVKPSNVWSRGYDYWGQGTQVTVSS | low polyreactivity
QLQLEESGGGLVQAGGSLRLSCAASGFIFYSNAMGWYRKAPGKERELVASIPGDGGTTYYADSVKGRFTISRDNAKNTVYLQMNSLKPEDTAFYYCAKDYIYRGYYTDFRYEDYEYWGQGTQVTVSS | low polyreactivity
QLQLEESGGGLVQAGGSLRLSCAPSGSILNIYAMGWYRQAPGKERELVAVITSGTNTNYAVSVKGRFTISRDNAKNTVYLQMNSRKPEDTAVYYCNDEKYWWGYEYWGQGTQVTVSS | high polyreactivity
QLQLEESGGGLVQAGGSLRLSSAASGSIFYPNVMGWYRQAPGKERELVAAISWGGTSTNYADSVKGRFTISRDNAKNTVYLQMNSLKPEDTAVYYCAARTYWYGYNYWGQGTQVTVSS | high polyreactivity
QLQLGESGRGGVQAGGSLRVSCAPSGLPFIYYAMGWYRPAPGKVRELVATISQSGSSTYYADSVKGRFTSSRDHATNTVDLQMNSLKPADTAVDYCNVSSVRWARFDYWGQGTQVTVSS | high polyreactivity
QLQLQESGGGLVQADGSLRLSCAASGSIFGYYYMGWYRQAPGKDRELVATINICGITNYADSVKGRFTISRDNAKNTVYLQMNSLKPDDTAVYYCAADEYAQRDLGYWGQGTQVTVSS | low polyreactivity
QLQLQESGGGLVQAGGSLRLSCAASALITKVYSMGWYRQAPGKERELVAVINSNGGSTYYADSVKGRFTISRDNAQNTVYLQMNSLKPEDTAVYYCRYFRPYGYNYWGQGTQVTVSS | high polyreactivity
QLQLQESGGGLVQAGGSLRLSCAASGNISVTGFMGWYRQAPGKERELVASIGIGGTTYYADSVKGRFSISRDNAKNTVYLQMNSLKPEDTAVYYCAARYLYYAYSYWGQGTQVTVSS | low polyreactivity
QLQLVDSGGGLVQAGGSLRLSCAASGRIFSANAMGWYRQAPGKERELVAAIDGSDGITYYADSVKGRFTISRDNAKNTVYLQMNSLKPEDTAVYYCAAYLPYTTYRYRYDYWGQGNQVTVSS | high polyreactivity
QLQLVESGGCLVQAGGSLRLSCAASGIIFVVNDMGWYRQAPGNARELVADISDSGGSTNYADSVKGRFTISRDNAKNSVYLQMNSLKPEDTAVYYCAADSADPTEYDYWGQGTQVTLSS | low polyreactivity
QLQLVESGGGLFQAGGSLRLSCAPSGFIFTAYTMGWYRQAHGKESELVAAIDSGGGTYYADYVKGRFTISRYNAKNTVYLQIHSLKPDDTAVYYCAADPAKSRAGDFDYWGQGTQVTVSS | high polyreactivity
QLQLVESGGGLVQAGASLRLSCAASGSILWPSARGWYRQAPGKERELVAAISTGGSTYYADSVKGRFTISRDNAKNTVYLQMNSLKPEDTAVYYCAAYVDYSVYFGGGYWGQGTQVTVSS | low polyreactivity
QLQLVESGGGLVQAGGSLRLICADSGRTFPSNTMGWYRQAPGKERELVAAITNSGGSTYYADSVKGRFTISRDNAKNTVYLQMNSLKPEDTAVYYCAKVVGAPYVEYDYWGQGTQVSVSS | low polyreactivity
